Measurements: patent publication US7867500B2, “Cofactor that modulates steroid receptor activities” (The United States of America as represented by the …, priority 2004, dated 2011)

Columns and labels:
Type in all cases: cell-based
ERα = molecular target: T1, ERα (Homo sapiens, UniProt P03372); experiment: Mammalian two-hybrid assay with VP16 full length receptor: ERα; details: 1 μM estradiol
T1 construct: plus VP16 fused to the indicated full length receptors; expressed in transfected cells; host or cells: CV-1
T1 sequence (P03372 1-595): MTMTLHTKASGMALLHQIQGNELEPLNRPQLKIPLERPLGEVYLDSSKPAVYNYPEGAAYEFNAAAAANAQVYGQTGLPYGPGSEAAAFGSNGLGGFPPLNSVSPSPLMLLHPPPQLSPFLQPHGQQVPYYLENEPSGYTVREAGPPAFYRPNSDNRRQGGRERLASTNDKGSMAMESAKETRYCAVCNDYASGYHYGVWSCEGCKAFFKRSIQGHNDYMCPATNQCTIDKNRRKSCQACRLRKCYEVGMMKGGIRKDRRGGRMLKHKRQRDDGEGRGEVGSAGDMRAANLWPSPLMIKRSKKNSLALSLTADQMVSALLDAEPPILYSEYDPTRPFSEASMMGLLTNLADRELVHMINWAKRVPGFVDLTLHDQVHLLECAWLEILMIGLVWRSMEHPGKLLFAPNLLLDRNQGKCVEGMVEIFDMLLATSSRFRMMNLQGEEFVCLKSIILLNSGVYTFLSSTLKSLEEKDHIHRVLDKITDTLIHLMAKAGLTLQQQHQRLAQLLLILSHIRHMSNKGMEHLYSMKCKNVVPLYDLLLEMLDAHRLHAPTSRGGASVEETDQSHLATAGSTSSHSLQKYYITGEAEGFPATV
Protocol: (§1) FIG. 6C1-3 illustrate the association of STAMP with assorted steroid/nuclear receptors, including glucocorticoid receptors (GRs), progesterone receptors (PRs), androgen receptors (ARs), estrogen receptors (ER α or β), PPARγ2 receptors, thyroid receptor beta (TR), and retinoid (α) receptors (RAR α or RXR α). Triplicate samples of CV-1 cells were transfected (as described for FIG. 6B) with GAL, or GAL fused to TIF2.4 or STAMP834C, plus VP16 fused to the indicated full length receptors and incubated with the appropriate steroid (1 μM Dex, 20 nM R5020, 1 nM R1881, 0.1 μM triiodothyronine, or 1 μM estradiol, roziglitazone, or 9-cis-retinoic acid). The average relative luciferase activities of 2-3 experiments±S.E.M. were then plotted. FIG. 6C1 illustrates the effects of STAMP association upon GR, PR and AR induced expression. FIG. 6C2 illustrates the effects of STAMP association upon ERα, ERβ and PPARγ2 induced expression. FIG. 6C3 illustrates the effects of STAMP association upon TR, RARα and RXRα induced expression.
(§2) These assays were conducted as described (He et al., 2002). […]

ERβ = molecular target: T2, ERβ (Homo sapiens, UniProt Q92731); experiment: Mammalian two-hybrid assay with VP16 full length receptor: ERβ; details: 1 μM estradiol
T2 construct: plus VP16 fused to the indicated full length receptors; expressed in transfected cells; host or cells: CV-1
T2 sequence (Q92731 whole entry, species assumed, the tested form may be a part): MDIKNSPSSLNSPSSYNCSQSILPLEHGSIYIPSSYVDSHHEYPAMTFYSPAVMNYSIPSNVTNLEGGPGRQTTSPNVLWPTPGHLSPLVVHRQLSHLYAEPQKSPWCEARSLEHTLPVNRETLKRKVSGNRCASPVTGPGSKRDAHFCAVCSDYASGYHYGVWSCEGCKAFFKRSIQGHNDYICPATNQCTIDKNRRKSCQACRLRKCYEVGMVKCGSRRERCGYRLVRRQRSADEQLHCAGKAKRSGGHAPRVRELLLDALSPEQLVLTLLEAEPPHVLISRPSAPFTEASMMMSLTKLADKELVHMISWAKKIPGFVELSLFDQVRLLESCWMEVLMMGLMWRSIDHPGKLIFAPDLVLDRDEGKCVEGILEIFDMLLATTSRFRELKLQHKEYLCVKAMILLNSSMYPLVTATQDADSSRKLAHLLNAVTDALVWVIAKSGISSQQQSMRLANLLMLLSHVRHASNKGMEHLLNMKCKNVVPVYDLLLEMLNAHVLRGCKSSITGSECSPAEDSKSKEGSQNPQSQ
Protocol: as §1, §2

coll3 promoter = experiment: ChIP assay on the endogenous coll3 promoter in U2OS.rGR cells; details: 1 μM Dex, after 20 min of steroid treatment; HA/STAMP
Protocol: FIG. 5C illustrates that STAMP and GR are co-localized on the promoter of an endogenous regulated gene as detected by chromatin immunoprecipitation (ChIP) assays. U2OS.rGR cells were treated with 1 μM Dex and then processed after 0 to 80 min as described in Example 1. The binding of GR and STAMP to the coll3 promoter was determined by the ability of PCR to amplify coll3 promoter sequences in the DNA that had been co-immunoprecipitated by anti-GR and anti-HA (to immobilize HA/STAMP) antibodies, respectively (upper panel). […] Similar results were obtained in two additional experiments.
The basic method of Ma et al. (Ma et al. (2003) Methods Enzymol. 364: […], was used with modifications. Two days before harvest, U2OS.rGR cells were seeded into 150 mm dishes at 3,000,000 cells per dish in phenol-red free medium with 10% charcoal/dextran-stripped fetal bovine serum. Each dish was transfected on the next day with 15 μg HA-STAMP and 60 μl Liopfectamine. On the third day, after brief ligand treatment, formaldehyde (37%) was added directly into the medium to a final concentration of 1% (37° C., 10 min), which was followed by glycine to a final concentration of 0.125 M (room temperature, 5 min with shaking). Cells were washed with (4° C.) cold PBS twice and harvested by scraping into 5 ml of cold (4° C.) PBS with a protease inhibitor cocktail (Roche). […]

B1: STAMP834C: STAMP fragment amino acids 834-1277, receptor interaction domain (RID) (protein)
chain: GDHPETIMEEVKIKPPKQQQTTEIHSDKLSRFTTSAEKEAKLVYSNSSSGPTATLQKIPNTHLSSVTTSDLSPGPCHHSSLSQIPSAIPSMPHQPTILLNTVSASASPCLHPGAQNIPSPTGLPRCRSGSHTIGPFSSFQSAAHIYSQKLSRPSSAKAGSCYLNKHHSGIAKTQKEGEDASLYSKRYNQSMVTAELQRLAEKQAARQYSPSSHINLLTQQVTNLNLATGIINRSSASAPPTLRPIISPSGPTWSTQSDPQAPENHSSSPGSRSLQTGGFAWEGEVENNVYSQATGVVPQHKYHPTAGSYQLQFALQQLEQQKLQSRQLLDQSRARHQAIFGSQTLPNSNLWTMNNGAGCRISSATASGQKPTTLPQKVVPPPSSCASLVPKPPPNHEQVLRRATSQKASKGSSAEGQLNGLQSSLNPAASVPITSSTDPAHTKI
interaction with estrogen receptor α (ERα): lack of interaction
interaction with estrogen receptor β (ERβ): lack of interaction

B2: STAMP: SRC-1 and TIF2 Associated Modulatory Protein, 1277 amino acid human polypeptide, expressed from transfected plasmid (protein)
chain: MARDLEETASSSEDEEVISQEDHPCIMWTGGCRRIPVLVFHADAILTKDNNIRVIGERYHLSYKIVRTDSRLVRSILTAHGFHEVHPSSTDYNLMWTGSHLKPFLLRTLSEAQKVNHFPRSYELTRKDRLYKNIIRMQHTHGFKVFHILPQTFLLPAEYAEFCNSYSKDRGPWIVKPVASSRGRGVYLINNPNQISLEENILVSRYINNPLLIDDFKFDVRLYVLVTSYDPLVIYLYEEGLARFATVRYDQGAKNIRNQFMHLTNYSVNKKSGDYVSCDDPEVEDYGNKWSMSAMLRYLKQEGRDTTALMAHVEDLIIKTIISAELAIATACKTFVPHRSSCFELYGFDVLIDSTLKPWLLEVNLSPSLACDAPLDLKIKASMISDMFTVVGFVCQDPAQRASTRPIYPTFESSRRNPFQKPQRCRPLSASDAEMKNLVGSAREKGPGKLGGSVLGLSMEEIKVLRRVKEENDRRGGFIRIFPTSETWEIYGSYLEHKTSMNYMLATRLFQDRMTADGAPELKIESLNSKAKLHAALYERKLLSLEVRKRRRRSSRLRAMRPKYPVITQPAEMNVKTETESEEEEEVALDNEDEEQEASQEESAGFLRENQAKYTPSLTALVENTPKENSMKVREWNNKGGHCCKLETQELEPKFNLMQILQDNGNLSKMQARIAFSAYLQHVQIRLMKDSGGQTFSASWAAKEDEQMELVVRFLKRASNNLQHSLRMVLPSRRLALLERRRILAHQLGDFIIVYNKETEQMAEKKSKKKVEEEEEDGVNMENFQEFIRQASEAELEEVLTFYTQKNKSASVFLGTHSKISKNNNNYSDSGAKGDHPETIMEEVKIKPPKQQQTTEIHSDKLSRFTTSAEKEAKLVYSNSSSGPTATLQKIPNTHLSSVTTSDLSPGPCHHSSLSQIPSAIPSMPHQPTILLNTVSASASPCLHPGAQNIPSPTGLPRCRSGSHTIGPFSSFQSAAHIYSQKLSRPSSAKAGSCYLNKHHSGIAKTQKEGEDASLYSKRYNQSMVTAELQRLAEKQAARQYSPSSHINLLTQQVTNLNLATGIINRSSASAPPTLRPIISPSGPTWSTQSDPQAPENHSSSPGSRSLQTGGFAWEGEVENNVYSQATGVVPQHKYHPTAGSYQLQFALQQLEQQKLQSRQLLDQSRARHQAIFGSQTLPNSNLWTMNNGAGCRISSATASGQKPTTLPQKVVPPPSSCASLVPKPPPNHEQVLRRATSQKASKGSSAEGQLNGLQSSLNPAASVPITSSTDPAHTKI
localization on the coll3 promoter (coll3 promoter): induced to localize on the coll3 promoter
